Experimental data taken from the supplement of paper PMC12042874.
± gives the uncertainty stated by the source.

test: amyloid nucleation score (Sup35N fusion, yeast selection) (log enrichment); library NNK2; higher = more nucleation; inactive = no reads after selection
Procedure, shortened: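 On medium lacking adenine and uracil, psi-negative yeast expressing peptides of 20 random codons fused to Sup35N were grown 7 days at 30°C after a 24-hour induction with 100 μM copper sulfate. Illumina sequencing of input and output plasmid inserts gave the reads, and sequences under 100 input reads were excluded. The nucleation score is the DiMSum log enrichment of output over input reads, centred on the mode score of non-aggregating sequences.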

Point of comparison: SMPWYMYCIVYYVDVYCCNI, amyloid nucleation score 6.566 ± 0.039. Against it:
- ILFCLF — higher, 8.143 ± 0.033
- LRYVEGHGKDITSGGSLEEH — lower, 1.41 ± 0.14
- SWPVRFQLNATGSPVGRLWT — lower, -0.334 ± 0.76
- GKGRMYES — lower, 0.738 ± 0.24
- FLDGAYSWLWLGSYIRGLSH — lower, -0.262 ± 0.56
- YSFMS — lower, -0.458 ± 0.27
- TMYWTAMMISGDLACQIGSR — lower, 6.127 ± 0.046
- FYDVSCTRTDIMVESTSRLS — lower, 5.24 ± 0.086
- GTRYILVKGTMGYDLCYFLG — lower, 2.69 ± 0.13
- VNSLFDWNRAKFLIR — lower, -1.39 ± 0.79
- FTNVSEIWMSFGHNPESGLA — lower, 2.92 ± 0.074
- FDLCCMKYHSYHMQFI — lower, -0.214 ± 1
- GKDGRVFGSEAYWMEGKRKW — lower, 0.235 ± 0.8
- QLRVYEKFKWCQREWRMDRF — lower, 4.623 ± 0.034
- SSSVSRPRCFFRSWFYIHVR — lower, -1.21 ± 0.49
- MYTSLLVYML — lower, 3.78 ± 0.048
- FSVRVTSRFIRYEGSFHFSK — lower, 0.032 ± 0.76
- TFDFDNVAVYYALSGTGDSW — lower, -0.516 ± 0.34
- NITLRSQGIVRGQTFICLFW — lower, -0.354 ± 0.56
- IMFASKHCSVGVMLKIGRTF — lower, 0.209 ± 0.33
- PLVAMGMIINNI — lower, -1.74 ± 0.48
- TCSCSLVFYMILARG — lower, -0.053 ± 0.63
- CLLYDQGFWQAGVLNVVAAR — lower, -0.085 ± 0.29
- IETNTSGSPIVPKDDLYNSY — lower, -0.672 ± 0.55
- VVRCRWQDTRTVSQGWVIP — lower, 0.97 ± 0.33
- EARVSDSVFGLVVVKTMCYV — lower, 5.535 ± 0.043
- QKWVF — lower, -0.76 ± 0.31
- GNNIVDPMLYLEGFKFSPIP — lower, 0.082 ± 0.65
- GNVYHLPDCLNLTWVLKIKN — lower, -0.944 ± 0.39
- IKTVIRCLDLVSFHRYGIGV — lower, -0.401 ± 0.31
- MNRYSKIVSQFVLAVDSTYF — lower, 0.433 ± 0.74
- TTDRTDCLSFQLNFTDMKRG — lower, 6.08 ± 0.073
- CDMPLKLWTLAVLPLDVPYR — lower, 0.179 ± 0.49
- HSYFRFTPSFLAARSKYLRH — lower, -0.498 ± 1.1
- IFSTGNVKGNLTR — lower, -0.491 ± 0.22
- SWKGHIISSAHQQLESPSLW — lower, 0.345 ± 0.23
- YLLFEWHYRHTYRCLVRVGA — lower, -0.166 ± 0.76
- HERLKLAGSQSWVGKLVRQG — lower, 0.917 ± 0.29
- ERMFNMIALVRRAGGERNRT — lower, 4.43 ± 0.059
- GGNVLRE — lower, -0.527 ± 0.35
- TIQGLFRFSADVRTCAFMGS — lower, 2.33 ± 0.15
- VLNCNRYFRCSANNIEASES — lower, 0.27 ± 0.56
- IRWMTHWKV — lower, 0.834 ± 0.43
- WCLGSMVTHYYLATNSSGYC — lower, 3.64 ± 0.11
- CVYRASIVRSRSNYEAVWYS — lower, 0.341 ± 0.24
- AFCWTLWQYLGFS — lower, 1.35 ± 0.16
- AIRLLDVLRCRG — lower, 3.88 ± 0.087
- KVAFLLRVGAYFDSWWHRRV — lower, 0.166 ± 0.39
- LWSGFLSFVSNVPTFLYLS — lower, -2.01 ± 0.41
- FFCRG — lower, 3.26 ± 0.084
- RLYIIIRFGIVHVT — lower, -0.078 ± 0.21
- HSALWRLWEPAQP — lower, 0.552 ± 0.64
- LLAFHCGHQMCFGVINMSTG — lower, 3.83 ± 0.065
- NDTCIRLWRWLRAQDSWLGN — lower, 0.668 ± 0.37
- LMVESNWHALHLVYVFSYI — lower, 0 ± 0.56
- CMRCILASCK — lower, -0.348 ± 0.34
- SWFSSNFFFY — lower, 5.27 ± 0.058
- KILNDWADMKSRLMGRLLGE — lower, 0.65 ± 0.42
- LFRWM — lower, 3.92 ± 0.06
- RITVEKHSQCALMLHRQYCV — lower, 1.39 ± 0.16
- FMITQSFSGT — lower, -1.05 ± 0.41
- QQGYVTLSNFCGRA — lower, -0.292 ± 0.5
- RGWKSLWRLNFYVWVWHLKD — lower, 2.67 ± 0.09
- QGLIFVSLFRCCSLCRQYTD — lower, 2.72 ± 0.18
- LSYVDWKCAVFDICW — lower, 3.53 ± 0.043
- VFPMNELMASTVNKA — lower, 6.274 ± 0.033
- DHCMMLRFN — lower, 0.716 ± 0.6
- WVFGLCSIPLHCVLHGIMMG — lower, 2.92 ± 0.16
- VGSGGKGSMFYGYIELIFM — lower, -0.641 ± 1.1
- TPAWCYPTGIGLIPPEWLGQ — lower, 0.605 ± 0.23
- YARTKDYVLVCLQGICAGVN — lower, -0.14 ± 1
- IVKYTGSKIYKFWYDLAGPL — lower, -1.06 ± 1.1
- YTRSYGPFPSHLVNLARNLS — lower, -0.905 ± 0.32

For MYSLSAAFT, the amyloid nucleation score was “inactive”.
With RYFYLLWLIVTWIYSRVVIH the amyloid nucleation score was “inactive”.
With GGLFRFYS the amyloid nucleation score was “inactive”.
In the case of NDRHLRWPFCPCYQVRLCIT, the amyloid nucleation score is reported as “inactive”.
For CVVTSVIENGFFLQFIMFYQ, the amyloid nucleation score was “inactive”.
For SFLRSNRGEVLPCNILNYVA, the amyloid nucleation score was “inactive”.
In the case of NYDSSDLTLFDVSRRPLLER, the amyloid nucleation score is reported as “inactive”.
With FFYSVRVRPALIIC the amyloid nucleation score was “inactive”.
With KMPGFLVCW the amyloid nucleation score was “inactive”.
For CISWL, the amyloid nucleation score was “inactive”.
With FRRNKNN the amyloid nucleation score was “inactive”.
